The record followed here is patent publication US20220242958A1, “BISPECIFIC NANOBODIES” (Ablynx N.V., priority 2013, published 2022).

Test [1] has as its system CD8+/CD4− gated and CD4+ gated T cells. In words: Multi-colour FACS on TH1 activated T cells gated for CD8 or CD4. Format: binding, human. The conditions noted are these: donor D838; anti-flag-APC detection. As to the method: To elucidate if CD4-IL12R bispecific polypeptides preferentially bind to the CD4+/IL12R+ TH1 cell subset within the pool of T cells, Nanobody binding was analysed to a pool of activated T cells gated for either CD8 (detected by Anti-hu CD8 PE-Cy7 conjugated monoclonal antibody (BD 557746) or CD4 (detected by Anti-hu CD4 alexa Fluor 488-conjugated polyclonal antibody (R&D FAB8165G) in a multi-colour FACS experiment. Nanobody binding to the CD8+/CD4− gated cells and to CD4+ gated cells was determined using anti-flag-APC (Prozyme PJ255) detection. In this experiment TH1 activated T cells from the same donor (D838) as shown in FIG. 3.6 were used.

Test [2] has as its target T1, human IL12Rβ2 extracellular domain Fc-fusion (Homo sapiens, UniProt Q99665).
T1 construct: Fc-fusions of human IL12Rβ1, IL12Rβ2 and IL-23R extracellular domains; purchased R&D Systems #1959-B2
T1 sequence (Q99665 24-622 limits assumed): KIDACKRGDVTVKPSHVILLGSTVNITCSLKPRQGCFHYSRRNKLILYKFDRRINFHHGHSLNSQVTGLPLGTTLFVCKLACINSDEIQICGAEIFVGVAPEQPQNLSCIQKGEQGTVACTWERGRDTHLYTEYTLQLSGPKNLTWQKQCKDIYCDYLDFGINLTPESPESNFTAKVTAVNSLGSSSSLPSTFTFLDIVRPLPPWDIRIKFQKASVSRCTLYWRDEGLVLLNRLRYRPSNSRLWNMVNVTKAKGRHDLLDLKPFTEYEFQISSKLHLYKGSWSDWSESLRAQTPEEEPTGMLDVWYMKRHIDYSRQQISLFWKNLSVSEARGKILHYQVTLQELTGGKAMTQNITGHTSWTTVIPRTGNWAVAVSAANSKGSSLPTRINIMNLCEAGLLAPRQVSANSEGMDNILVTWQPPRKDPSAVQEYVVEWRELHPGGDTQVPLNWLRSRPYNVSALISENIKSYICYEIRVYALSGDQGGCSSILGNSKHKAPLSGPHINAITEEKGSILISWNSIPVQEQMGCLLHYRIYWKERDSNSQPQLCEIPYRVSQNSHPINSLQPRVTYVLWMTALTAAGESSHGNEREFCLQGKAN
In words: SPR (Biacore T100) on IL12Rβ2-Fc. It is filed as binding. The procedure:
(§1) The precise binding affinities of the purified Nanobodies were determined in a multi-cycle kinetic analysis using Surface Plasmon Resonance analysis (Biacore T100) on Fc-fusions of human IL12Rβ1, IL12Rβ2 and IL-23R extracellular domains (R&D Systems, #839-B1, #1959-B2, #1400-IR). Sensorchips CM5 were immobilized with anti-hIgG antibody (GE Healthcare, BR-1008-39), after which receptors were captured at 5 μg/ml protein and contact time of 120 seconds. Running buffer used was HBS-EP+ (GE Healthcare, BR-1006-69) at 25° C., with a flow-rate of […]. For immobilization by amine coupling, EDC/NHS was used for activation and ethanolamine HCl for deactivation (Biacore, amine coupling kit). Nanobodies were evaluated at a concentration range between 1.37 nM and 3 μM. Nanobodies were allowed to associate for 2 min and to dissociate for 15 min at a flow rate of […]. In between injections, the surfaces were regenerated with a 3 min pulse of 3M MgCl2 and 2 min stabilization period. Evaluation of the association/dissociation data was performed by fitting a 1:1 interaction model (Langmuir binding model) by Biacore TWO software v2.0.3.
In general terms: In SPR one partner is held on a chip, and binding of the other changes the refractive index at the surface.

Test [3] relates to HEK293T-wt cells. In words: FACS binding to non-transfected HEK293T-wt cells (specificity). More on the design: species or system human. The conditions noted are these: data not shown. The procedure: Nanobody binding to membrane associated human IL-3Rα was analysed on HEK293T cells transfected with pcDNA3.1-IL3Rα (NM_002183.2) and non-transfected cells. Surface expression was confirmed by FACS using IL-3Rα specific antibodies (R&D MAB301 and BD Pharminogen 554528), followed by goat anti-mouse PE (Jackson Immuno Research 115-115-164). Briefly, serial dilutions of Nanobodies were allowed to associate for 30 minutes at 4° C. in FACS buffer (PBS 1×+10% FBS+0.05% azide). Following this, cells were washed by centrifugation and probed with 6.7 nM anti-FLAG for 30 minutes at 4° C., to detect bound Nanobody. Detection was done with […] for 30 minutes at 4° C. Cells were washed and incubated with TOPRO3 to stain for dead cells, which are then removed during the gating procedure. The cells were then analysed via a BD FACSArray. The results are depicted in FIG. 1.2.
Background: In flow cytometry, cells or beads pass a laser one at a time.

For test [4], the target named is T2, recombinant IL-3Rα ectodomain (Homo sapiens, UniProt P26951).
T2 construct: Immobilisation of recombinant IL-3Rα ectodomain (Sino Biologicals) was done until 761 RU; purchased Sino Biologicals
T2 sequence (P26951 19-305 limits assumed): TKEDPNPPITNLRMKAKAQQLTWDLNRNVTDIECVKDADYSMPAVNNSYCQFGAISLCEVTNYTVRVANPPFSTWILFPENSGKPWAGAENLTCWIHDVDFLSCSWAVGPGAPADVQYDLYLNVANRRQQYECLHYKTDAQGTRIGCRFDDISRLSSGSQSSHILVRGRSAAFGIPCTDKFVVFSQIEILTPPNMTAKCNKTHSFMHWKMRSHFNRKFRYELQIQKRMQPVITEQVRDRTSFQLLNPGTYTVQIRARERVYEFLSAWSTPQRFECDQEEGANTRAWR
In words: SPR (ProteOn) on recombinant IL-3Rα ectodomain. It is filed as binding. As to the method:
The affinities of CD123 specific Nanobodies were further investigated via Surface Plasmon Resonance (SPR) at ProteOn. Immobilisation of recombinant IL-3Rα ectodomain (Sino Biologicals) was done until 761 RU. The Nanobodies were applied at a highest concentration of 1 μM, followed by a three-fold titration, covering 5 further concentrations ranging from 1 μM to 4.1 nM. These were then applied in a single injection cycle, utilising the ProteOn's specific one-shot kinetics approach for kinetic analysis. Evaluation of the association/dissociation data was performed by fitting a 1:1 interaction model (Langmuir binding model). […] For CD123 Nanobodies the obtained KD values correlated well with the apparent affinities retrieved by cell binding EC50 values (see Table 3).

The subject of test [5] is cytotoxic CD8+ T cells. Put plainly: Binding to isolated CD8+ T cells (FACS). Further details: species or system human. The settings on record: Nanobodies at 250 nM. The procedure:
The pool of activated T cells comprises both CD4+ T cells and CD8+ T cells. To confirm the specificity of the anti-CD4 Nanobody and to exclude binding to CD4-negative cells, binding was assessed to cytotoxic CD8+ T cells isolated from human PBMCs using the CD8+ T Cell Isolation Kit (Miltenyi Biotech, 130-096-495), resulting in 94% purity of CD8+ cells. Binding specificity experiments were carried out using Nanobodies at 250 nM. […] Similar data were obtained for the IL12Rβ2 and IL23R Nanobodies.

The target in test [6] is T3, human IL12Rβ1 extracellular domain Fc-fusion (Homo sapiens, UniProt P42701).
T3 construct: Fc-fusions of human IL12Rβ1, IL12Rβ2 and IL-23R extracellular domains; purchased R&D Systems #839-B1
Put plainly: SPR (Biacore T100) on IL12Rβ1-Fc. It is filed as binding. The procedure: as §1

B1: IL12Rb2#1: IL-12Rβ2 specific ligand competing Nanobody (protein)
VHH: EVQLVESGGRLVQAGDSLRLSCAASGRTFISYRMGWFRQAPGKEREFVAALRWSSSNIDYTYYADSVKGRFSISGDYAKNTVYLQMNSLKAEDTAVYYCAASTRWGVMESDTEYTSWGQGTLVTVSS
B1: in test [1], the “binding to CD4+ gated and CD8+ gated T cells” value was “low fluorescence signals to both CD4+ and CD8+ cells”. Besides, in test [2], the “Binding kinetics (SPR) ka (1/Ms), IL12Rβ2” value was 210000 M⁻¹ s⁻¹ and the “Binding kinetics (SPR) kd (1/s), IL12Rβ2” value was 0.00057 s⁻¹.

B2: CD123#1: anti-IL-3Ra (CD123) Nanobody, SEQ ID NO: 15 (protein)
VHH: EVQLVESGGGLVQAGGSLRLSCAASGSIFSGNVMGWYRRQAPGKEREWVAAIASGGSIYYRDSVKGRFTISRDNAKNTVYLQMNSLKPEDTAVYYCNSHPPTLPYWGLGTQVTVSS
Turning to B2, the “binding to HEK293T-wt cells” value in test [3] was “lack of binding”. Moreover, in test [4], the “SPR - IL-3Ra ka” value worked out at 1e+06 M⁻¹ s⁻¹ and the “SPR - IL-3Ra kd” value came to 0.00081 s⁻¹.

B3: IL12Rb1#30: IL-12Rβ1 specific ligand competing Nanobody (protein)
VHH: EVQLVESGGGLVQTGGSLRLSCAASGRTPRLVAMGWFRQTPGKEREFVGEIILSKGFTYYADSVKGRFTISRVNAKNTITMYLQMNSLKSEDTAVYYCAGRQNWSGSPARTNEYEYWGQGTLVTVSS
As to B3, the “binding to isolated CD8+ T cells” value in test [5] is given as “did bind”. Further, in test [6], the “Binding kinetics (SPR) ka (1/Ms), IL12Rβ1” value came to 450000 M⁻¹ s⁻¹ and the “Binding kinetics (SPR) kd (1/s), IL12Rβ1” value came out at 0.0015 s⁻¹. Further, the “binding to CD4+ gated and CD8+ gated T cells” value in test [1] is “low fluorescence signals to both CD4+ and CD8+ cells”.

B4: CD123#2: anti-IL-3Ra (CD123) Nanobody, SEQ ID NO: 14 (protein)
VHH: EVQLVESGGGSVQAGGSLRLSCTTSGRALNMYVMGWFRQAPGNEREFVAATSSSGGSTSYPDSVKGRFTISRDNAKNTVYLQMNSLKPEDTAAYRCAASPYVSTPTMNILEEYRYWGLGTQVTVSS
For the molecule B4, the “binding to HEK293T-wt cells” value in test [3] is “lack of binding”. Further, in test [4], the “SPR - IL-3Ra ka” value was found to be 84000 M⁻¹ s⁻¹ and the “SPR - IL-3Ra kd” value is 0.0014 s⁻¹.
